Legend:
FGF1 = FGF1 (UniProt P05230 1-155); experiment: SPR
FGF8b = experiment: SPR

FGF1, sequence (P05230 whole entry): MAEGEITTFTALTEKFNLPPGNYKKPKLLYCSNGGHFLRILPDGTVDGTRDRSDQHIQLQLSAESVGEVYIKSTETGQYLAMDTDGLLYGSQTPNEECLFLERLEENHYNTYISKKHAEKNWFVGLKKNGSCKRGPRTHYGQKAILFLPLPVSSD

| Kd (FGF1) [µM] | Kd (FGF8b) [µM] | Binder |
| --- | --- | --- |
| 0.265 | 0.39 | D1-D2-D3^ΔAB (FGFR1c) (domain or fragment) RPSPTLPEQAQPWGAPVEVESFLVHPGDLLQLRCRLRDDVQSINWLRDGVQLAESNRTRITGEEVEVQDSVPADSGLYACVTSSPSGSDTTYFSVNVSDALPSSKETDNTKPNRMPVAPYWTSPEKMEKKLHAVPAAKTVKFKCPSSGTPNPTLRWLKNGKEFKPDHRIGGYKVRYATWSIIMDSVVPSDKGNYTCIVENEYGSINHTYQLDVVERSPHRPILQAGLPANKTVALGSNVEFMCKVYSDPQPHIQWLKHIEVNGSKIGPDNLPYVQILKTAGVNTTDKEMEVLHLRNVSFEDAGEYTCLAGNSIGLSHHSAWLTVLEALEERPAVMTSPLYLE |
| 0.268 | 0.329 | D1-AB13ALA-D2-D3 (FGFR1c) (domain or fragment) RPSPTLPEQAQPWGAPVEVESFLVHPGDLLQLRCRLRDDVQSINWLRDGVQLAESNRTRITGEEVEVQDSVPADSGLYACVTSSPSGSDTTYFSVNVSDALPSSAAAAAAAAAAAAAKETDNTKPNRMPVAPYWTSPEKMEKKLHAVPAAKTVKFKCPSSGTPNPTLRWLKNGKEFKPDHRIGGYKVRYATWSIIMDSVVPSDKGNYTCIVENEYGSINHTYQLDVVERSPHRPILQAGLPANKTVALGSNVEFMCKVYSDPQPHIQWLKHIEVNGSKIGPDNLPYVQILKTAGVNTTDKEMEVLHLRNVSFEDAGEYTCLAGNSIGLSHHSAWLTVLEALEERPAVMTSPLYLE |

Source: publication PMC3378326 (Structure(London, England:1993), 2012)
